Assay results: US20240132572A1
pKd: −log10 of the molar value.

Key:
[1] = biological target: IFN alpha receptor (IFNAR) (UniProt P17181); test: cell-based or functional assay
[2] = biological target: IFN-alpha receptor 1 (IFNAR1) (UniProt P17181); test: SPR (Biacore X100); rhIFNAR2 immobilised on CM5 chip; 6.25-100 nM IFN fusion mixed with 100 nM IFNAR1 injected (ternary complex)

Row | Substance | inhibition of osteopontin (OPN) production in stimulated human PBMC at 1.5 ng/mL [1] [%] | inhibition of osteopontin (OPN) production in stimulated human PBMC at 10 ng/mL [1] [%] | pKd [2] | IC50 (nM), antiviral activity (cytopathic effect inhibition, A549 cells, EMCV) [1] [nM]
1 | natural fibroblast derived human IFNβ-1a (Rebif®) (from UniProt P01574 22-187) (ligand) | 88.4 | 81.3 | – | –
2 | interferon alpha Fc fusion protein (IFNα-Fc) | – | – | 7.74 | 0.0313
